Reference: patent publication US20110081661A1, “Modified photoproteins with increased affinity for calcium and enhanced bioluminescence and uses thereof” (Millipore Corporation, priority 2009, published 2011)
Changes are numbered by the printed parent chain. Numbers in names are those of the source.

Legend:
GIP Receptor = molecular target: T1, GIP Receptor (Homo sapiens, UniProt P48546); test: GIP receptor-mediated bioluminescence in HEK293T cells with chimeric promiscuous G protein (FIG. 5, Table II); type: cell-based; conditions: for Max signal with GIP (RLU × 10^−5) / EC50: HEK293T cells, GIP Receptor + promiscuous G protein; for EC50: luminescence vs GIP concentration; for % GPCR/total: signal induced by maximal GIP (1 μM) as percentage of signal induced by Triton X-100 with 1 mM Ca^2+; for Signal: background with GIP: signal induced by maximal GIP (1 μM) divided by signal induced by buffer alone
T1 construct: host or cells: HEK293T
T1 sequence (P48546 22-466): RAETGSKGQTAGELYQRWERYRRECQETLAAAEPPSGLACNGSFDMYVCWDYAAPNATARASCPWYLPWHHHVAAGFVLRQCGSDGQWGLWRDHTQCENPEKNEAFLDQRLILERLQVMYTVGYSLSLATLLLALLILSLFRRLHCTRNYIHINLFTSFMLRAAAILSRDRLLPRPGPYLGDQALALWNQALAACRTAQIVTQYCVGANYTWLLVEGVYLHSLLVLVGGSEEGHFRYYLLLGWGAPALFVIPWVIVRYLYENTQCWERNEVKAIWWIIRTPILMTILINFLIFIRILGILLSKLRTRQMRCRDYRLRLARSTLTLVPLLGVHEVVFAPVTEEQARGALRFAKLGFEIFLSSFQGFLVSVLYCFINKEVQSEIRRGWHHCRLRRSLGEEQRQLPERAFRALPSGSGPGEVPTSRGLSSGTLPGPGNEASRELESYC
Experimental: However, coexpression of GIP receptor with a chimeric G protein containing sequences from Gαs and Gαq enable the GIP receptor to stimulate calcium flux.
The results of the dose response curve to varying concentrations of GIP with a subset of the photoproteins are summarized in FIG. 5.
(§1) Signal to background ratio was calculated as the signal induced by maximal GIP (1 μM) divided by the signal induced by buffer alone. The EC50 value for calcium was determined as described above for FIG. 2 for mitochondrially targeted photoproteins transfected into HEK293T cells in the absence of a cotransfected GPCR or G protein. Affinity for calcium was correlated with the properties of the amino acid side chain at residue 168 of Clytin.
The EC50 value for receptor-mediated calcium flux induced by the ligand was determined by plotting luminescence (Y-axis) versus ligand concentration applied to the cells (X-axis), and applying a sigmoidal dose-response curve-fitting algorithm (GraphPad Prism). GPCR-mediated signals of the various modified forms of Clytin having an amino acid substitution at position 168 were also related to the nature of the side chain. In addition, the subcellular location of the photoproteins (cytosolic vs mitochondrial) appeared to have an effect on GPCR-mediated signals. […] All of the other mitochondrially targeted mutants except for Clytin K168R and wild-type Clytin yielded results that were in the range of those observed for wt-Aequorin.

[1] = Calcium EC50 of mitochondrially targeted photoproteins in HEK293T cells without cotransfected GPCR or G protein (Table II); type: cell-based; conditions: no cotransfected GPCR or G protein
Description: In an exemplary experiment, HEK293T cells (ATCC-CRL-11268) were transiently co-transfected with 2 μgs of each of pcDNA3.1-H1 (containing the cDNA encoding the H1 histamine receptor) and pcDNA3.1 containing the cDNAs encoding wild type mitochondrial Clytin (referred to as mt-Clytin), modified mitochondrial Clytin having a lysine to aspartic acid mutation at position 168 (referred to as mt-Clytin K168D), modified mitochondrial Clytin having a lysine to glutamic acid mutation at position 168 (referred to as mt-Clytin K168E), wild-type mitochondrial Obelin (referred to as mt-Obelin) or wild type mitochondrial Aequorin (referred to as mt-Aequorin) using the Targefect-293 reagent (TARGETING SYSTEMS). 48 hours later, the cells were detached using Accutase (MILLIPORE), centrifuged, and resuspended in […] in FreeStyle293 media (INVITROGEN), for incubation for 3-4 hours at room temperature in the dark. After incubation, the cells were centrifuged and resuspended in HBSS/HEPES buffer without Ca^2+ at a density of 1×10^6 cells/ml. Next, 100 μl/well of cell suspension for each transfection were added by the use of a Victor2 luminometer plate reader (WALLAC, […]), to a 96-well plate containing 50 μL/well Triton X-100 in MOPS/KCl buffer containing 10 mM EGTA and a series of Ca^2+ concentrations, such that free calcium concentrations ranged from 17 nM to 39.6 μM, followed by for measurement of total bioluminescence at 20 seconds.
as §1

B1: Cyto-obelin: Wild-type Obelin (wt-Obelin) amino acid sequence, SEQ ID NO:4; cytosolic (protein, listed as Obelia longissima)
chain: MSSKYAVKLKTDFDNPRWIKRHKHMFDFLDINGNGKITLDEIVSKASDDICAKLEATPEQTKRHQVCVEAFFRGCGMEYGKEIAFPQFLDGWKQLATSELKKWARNEPTLIREWGDAVFDIFDKDGSGTITLDEWKAYGKISGISPSQEDCEATFRHCDLDNSGDLDVDEMTRQHLGFWYTLDPEADGLYGNGVP
For B1, the “Max signal with GIP (RLU × 10^−5)” value (GIP Receptor) was 1.80 RLU × 10^−5, the EC50 (GIP Receptor) was 9.86 nM and the “% GPCR/total” value (GIP Receptor) was 56.7%. The “Signal: background with GIP” value (GIP Receptor) was 47.

B2: Mt-clytin K168S: Mitochondrial K168S modified Clytin, SEQ ID NO:22 (protein)
chain: MSVLTPLLLRGLTGSARRLPVPRAKIHSLPPEGKLRPNFDNPKWVNRHKFMFNFLDINGDGKITLDEIVSKASDDICAKLGATPEQTKRHQDAVEAFFKKIGMDYGKEVEFPAFVDGWKELANYDLKLWSQNKKSLIRDWGEAVFDIFDKDGSGSISLDEWKAYGRISGICSSDEDAEKTFKHCDLDNSGSLDVDEMTRQHLGFWYTLDPNADGLYGNFVP
For B2, the “Max signal with GIP (RLU × 10^−5)” value (GIP Receptor) was 3.84 RLU × 10^−5, the EC50 (GIP Receptor) was 15.4 nM and the “% GPCR/total” value (GIP Receptor) was 20.3%. For the same molecule, the “Signal: background with GIP” value (GIP Receptor) was 124.1 and the EC50 [1] was 228 nM.

B3: Mt-clytin K168Q: Mitochondrial K168Q modified Clytin, SEQ ID NO:20 (protein)
chain: B2 chain with S191Q
For B3, the “Max signal with GIP (RLU × 10^−5)” value (GIP Receptor) was 4.78 RLU × 10^−5, the EC50 (GIP Receptor) was 17.4 nM and the “% GPCR/total” value (GIP Receptor) was 14.2%. The “Signal: background with GIP” value (GIP Receptor) was 125.8 and the EC50 [1] was 335 nM.

B4: Mt-clytin K168G: Mitochondrial K168G modified Clytin, SEQ ID NO:16 (protein)
chain: B2 chain with S191G
For B4, the “Max signal with GIP (RLU × 10^−5)” value (GIP Receptor) was 5.09 RLU × 10^−5, the EC50 (GIP Receptor) was 15.1 nM and the “% GPCR/total” value (GIP Receptor) was 19.3%. For the same molecule, the “Signal: background with GIP” value (GIP Receptor) was 146.8 and the EC50 [1] was 232 nM.

B5: Mt-clytin K168R: Mitochondrial K168R modified Clytin, SEQ ID NO:30 (protein)
chain: B2 chain with S191R
With B5 the “Max signal with GIP (RLU × 10^−5)” value (GIP Receptor) was 1.89 RLU × 10^−5, the EC50 (GIP Receptor) was 29.1 nM and the “% GPCR/total” value (GIP Receptor) was 3.3%. For the same molecule, the “Signal: background with GIP” value (GIP Receptor) was 86.8 and the EC50 [1] was 581 nM.

B6: Mt-clytin K168H: Mitochondrial K168H modified Clytin, SEQ ID NO:14 (protein)
chain: B2 chain with S191H
In the case of B6, the “Max signal with GIP (RLU × 10^−5)” value (GIP Receptor) is reported as 4.98 RLU × 10^−5, the EC50 (GIP Receptor) is reported as 19.2 nM and the “% GPCR/total” value (GIP Receptor) is reported as 14.9%. For the same molecule, the “Signal: background with GIP” value (GIP Receptor) was 148.3 and the EC50 [1] was 459 nM.

B7: Mt-clytin K168T: Mitochondrial K168T modified Clytin, SEQ ID NO:24 (protein)
chain: B2 chain with S191T
With B7 the “Max signal with GIP (RLU × 10^−5)” value (GIP Receptor) was 4.26 RLU × 10^−5, the EC50 (GIP Receptor) was 13.4 nM and the “% GPCR/total” value (GIP Receptor) was 22%. For the same molecule, the “Signal: background with GIP” value (GIP Receptor) was 113.4 and the EC50 [1] was 174 nM.

B8: Mt-clytin K168Y: Mitochondrial K168Y modified Clytin, SEQ ID NO:28 (protein)
chain: B2 chain with S191Y
In the case of B8, the “Max signal with GIP (RLU × 10^−5)” value (GIP Receptor) is reported as 2.89 RLU × 10^−5, the EC50 (GIP Receptor) is reported as 16.4 nM and the “% GPCR/total” value (GIP Receptor) is reported as 18.5%. The “Signal: background with GIP” value (GIP Receptor) was 112.8 and the EC50 [1] was 284 nM.

B9: Mt-clytin K168N: Mitochondrial K168N modified Clytin, SEQ ID NO:18 (protein)
chain: B2 chain with S191N
For B9, the “Max signal with GIP (RLU × 10^−5)” value (GIP Receptor) was 3.82 RLU × 10^−5, the EC50 (GIP Receptor) was 21 nM and the “% GPCR/total” value (GIP Receptor) was 10.7%. For the same molecule, the “Signal: background with GIP” value (GIP Receptor) was 115.9 and the EC50 [1] was 358 nM.

B10: Mt-clytin K168V: Mitochondrial K168V modified Clytin, SEQ ID NO:26 (protein)
chain: B2 chain with S191V
With B10 the “Max signal with GIP (RLU × 10^−5)” value (GIP Receptor) was 3.60 RLU × 10^−5, the EC50 (GIP Receptor) was 16.8 nM and the “% GPCR/total” value (GIP Receptor) was 18.5%. The “Signal: background with GIP” value (GIP Receptor) was 158.0 and the EC50 [1] was 389 nM.

B11: K168T (protein)
chain: MADTASKYAVKLRPNFDNPKWVNRHKFMFNFLDINGDGKITLDEIVSKASDDICAKLGATPEQTKRHQDAVEAFFKKIGMDYGKEVEFPAFVDGWKELANYDLKLWSQNKKSLIRDWGEAVFDIFDKDGSGSISLDEWKAYGRISGICSSDEDAEKTFKHCDLDNSGTLDVDEMTRQHLGFWYTLDPNADGLYGNFVP
B11 gave an EC50 [1] of 174 nM.

B12: K168S (protein)
chain: B11 chain with T168S
For B12, the “Calcium EC50 (nM)” value [1] was “calcium affinities comparable to wild-type Aequorin, however, better than wt-Clytin”.

B13: K168E (protein)
chain: B11 chain with T168E
Molecule B13 has an EC50 [1] of 176 nM.

B14: K168G (protein)
chain: B11 chain with T168G
For B14, the “Calcium EC50 (nM)” value [1] was “calcium affinities comparable to wild-type Aequorin, however, better than wt-Clytin”.

B15: Cyto-clytin K168E: K168E modified Clytin amino acid sequence, SEQ ID NO:11; cytosolic (protein)
chain: B11 chain with T168E
For B15, the “Max signal with GIP (RLU × 10^−5)” value (GIP Receptor) was 6.47 RLU × 10^−5, the EC50 (GIP Receptor) was 7.9 nM and the “% GPCR/total” value (GIP Receptor) was 26.2%. For the same molecule, the “Signal: background with GIP” value (GIP Receptor) was 66.4.

B16: wild-type Clytin (protein, listed as Clytia gregaria)
chain: B11 chain with T168K
Work on B16 yielded an EC50 [1] of 545 nM.
